B1: GhJAZ1: cotton JAZ1 protein, gene number Gh_A05G0260, sequence SEQ ID No. 4; prokaryotically expressed with His tag, about 30 KD (protein)
chain: MSSCSESTAMKPARSPEKPSFAQTCNLLSQYLKEKGSFGDLSLGMTCNVEANGTPVVPPPTMNLFPLNDKSDDVCGRNGGNPKNLTSMDLFPQQAGLASKDDSPNKLEPQTAPMTIFYGGQVIVFNDFPANKAKEIMLLASNSSSQSNNSFNPIPFTSSIARSPIESSIGVPPTSKPVHPAQRAVPGDLPIARRASLHRFLEKRKDRITAKAPYQINNSAAAPSLSGDNKSWLGLAAQSP
modifications: His tag
notes: prokaryotically expressed with His tag, about 30 KD
B2: GhJAZ1 after deletion of NT domain: GhJAZ1 mutant with NT domain deleted, protein sequence SEQ ID No. 83 (protein)
chain: MSSCSESTAMKPARSPEANGTPVVPPPTMNLFPLNDKSDDVCGRNGGNPKNLTSMDLFPQQAGLASKDDSPNKLEPQTAPMTIFYGGQVIVFNDFPANKAKEIMLLASNSSSQSNNSFNPIPFTSSIARSPIESSIGVPPTSKPVHPAQRAVPGDLPIARRASLHRFLEKRKDRITAKAPYQINNSAAAPSLSGDNKSWLGLAAQSP

What was measured:
GhTPL = test: Yeast two hybrid with GhTPL; format: binding, cotton
GhTPL, sequence (as listed by the source): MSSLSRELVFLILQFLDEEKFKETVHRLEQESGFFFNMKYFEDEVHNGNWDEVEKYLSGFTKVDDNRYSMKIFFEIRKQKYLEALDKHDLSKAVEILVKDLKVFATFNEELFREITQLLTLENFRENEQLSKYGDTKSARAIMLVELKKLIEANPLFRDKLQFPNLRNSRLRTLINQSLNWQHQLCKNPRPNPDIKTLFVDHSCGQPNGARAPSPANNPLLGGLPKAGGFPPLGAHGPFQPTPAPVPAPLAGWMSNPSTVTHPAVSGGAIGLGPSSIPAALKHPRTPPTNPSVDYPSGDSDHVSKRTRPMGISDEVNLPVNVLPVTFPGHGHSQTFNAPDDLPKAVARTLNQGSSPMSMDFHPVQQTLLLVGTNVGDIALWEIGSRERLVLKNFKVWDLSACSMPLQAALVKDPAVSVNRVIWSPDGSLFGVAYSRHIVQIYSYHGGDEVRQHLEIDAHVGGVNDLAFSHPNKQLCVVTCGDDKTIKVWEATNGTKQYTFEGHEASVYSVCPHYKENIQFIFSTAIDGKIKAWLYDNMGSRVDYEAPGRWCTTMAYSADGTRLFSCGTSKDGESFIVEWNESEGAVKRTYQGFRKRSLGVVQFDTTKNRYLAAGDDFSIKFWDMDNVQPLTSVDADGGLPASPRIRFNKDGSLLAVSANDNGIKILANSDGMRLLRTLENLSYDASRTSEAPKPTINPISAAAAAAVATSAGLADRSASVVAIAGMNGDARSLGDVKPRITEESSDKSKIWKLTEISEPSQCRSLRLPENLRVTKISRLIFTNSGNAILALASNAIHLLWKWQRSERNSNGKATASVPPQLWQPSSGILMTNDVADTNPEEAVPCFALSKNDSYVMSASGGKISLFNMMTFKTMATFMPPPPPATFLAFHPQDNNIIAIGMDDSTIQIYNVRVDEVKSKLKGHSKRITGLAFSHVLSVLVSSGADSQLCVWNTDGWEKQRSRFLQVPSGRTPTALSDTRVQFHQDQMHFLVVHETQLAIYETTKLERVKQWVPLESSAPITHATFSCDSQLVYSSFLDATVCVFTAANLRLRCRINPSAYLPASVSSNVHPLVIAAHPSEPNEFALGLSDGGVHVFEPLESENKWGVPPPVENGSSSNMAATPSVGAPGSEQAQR
Method: (§1) The study on Arabidopsis had shown that the inhibition of JAZ protein on JA signaling was mainly achieved by inhibiting the transcription factor function of MYC, which had been experimentally verified by us in cotton. Based on the phylogenetic tree of Arabidopsis and cotton JAZs, we screened 6 cotton JAZs (GhJAZ1, GhJAZ7, GhJAZ9, GhJAZ10, GhJAZ11 and GhJAZ31), which were analyzed with GhMYC2, GhNINJA, GhTPL, GhHDA6, and GhCOI1 for yeast two hybrid. The amino acid sequence of GhJAZ1 was set forth in SEQ ID No. 4, and the corresponding encoding gene sequence was set forth in SEQ ID No. 39; the amino acid sequence of GhJAZ7 was set forth in SEQ ID No. 7, and the corresponding encoding gene sequence was set forth in SEQ ID No. 42; the amino acid sequence of GhJAZ9 was set forth in SEQ ID No. 2, and the corresponding encoding gene sequence was set forth in SEQ ID No. 37; the amino acid sequence of GhJAZ10 was set forth in SEQ ID No. 3, and the corresponding encoding gene sequence was set forth in SEQ ID No. 38; the amino acid sequence of GhJAZ11 was set forth in SEQ ID No. 5, and the corresponding encoding gene sequence was set forth in SEQ ID No. 40; and the amino acid sequence of GhJAZ31 was set forth in SEQ ID No. 9, and the corresponding encoding gene sequence was set forth in SEQ ID No. 44. The amino acid sequence of GhMYC2 was set forth in SEQ ID No. 71, and the corresponding encoding gene sequence was set forth in SEQ ID No. 72; the amino acid sequence of GhNINJA was set forth in SEQ ID No. 73, and the corresponding encoding gene sequence was set forth in SEQ ID No. 74; the amino acid sequence of GhTPL was set forth in SEQ ID No. 75, and the corresponding encoding gene sequence was set forth in SEQ ID No. 76; the amino acid sequence of GhHDA6 was set forth in SEQ ID No. 77, and the corresponding encoding gene sequence was set forth in SEQ ID No. 78; and the amino acid sequence of GhCOI1 was set forth in SEQ ID No. 79, and the corresponding encoding gene sequence was set forth in SEQ ID No. 80. […]

GhHDA6 = test: Yeast two hybrid with GhHDA6; format: binding, cotton
GhHDA6, sequence (as listed by the source): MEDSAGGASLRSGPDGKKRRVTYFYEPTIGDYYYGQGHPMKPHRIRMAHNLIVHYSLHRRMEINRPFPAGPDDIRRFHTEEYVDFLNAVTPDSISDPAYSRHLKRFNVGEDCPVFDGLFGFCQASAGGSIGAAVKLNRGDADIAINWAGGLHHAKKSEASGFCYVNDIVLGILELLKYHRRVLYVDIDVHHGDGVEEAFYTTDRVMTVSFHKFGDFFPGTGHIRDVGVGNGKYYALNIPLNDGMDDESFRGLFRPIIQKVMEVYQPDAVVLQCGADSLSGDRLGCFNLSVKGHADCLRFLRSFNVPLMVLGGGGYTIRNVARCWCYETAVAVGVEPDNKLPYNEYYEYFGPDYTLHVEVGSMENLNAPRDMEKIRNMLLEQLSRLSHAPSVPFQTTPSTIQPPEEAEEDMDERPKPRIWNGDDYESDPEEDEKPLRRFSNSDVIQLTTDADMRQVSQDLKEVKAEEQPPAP
Method: as §1, with “44.” for “44. The amino acid sequence of GhMYC2 was set forth in SEQ ID No. 71, and the corresponding encoding gene sequence was set forth in SEQ ID No. 72; the amino acid sequence of GhNINJA was set forth in SEQ ID No. 73, and the corresponding encoding gene sequence was set forth in SEQ ID No. 74; the amino acid sequence of GhTPL was set forth in SEQ ID No. 75, and the corresponding encoding gene sequence was set forth in SEQ ID No. 76; the amino acid sequence of GhHDA6 was set forth in SEQ ID No. 77, and the corresponding encoding gene sequence was set forth in SEQ ID No. 78; and the amino acid sequence of GhCOI1 was set forth in SEQ ID No. 79, and the corresponding encoding gene sequence was set forth in SEQ ID No. 80.”

| Molecule | interaction with GhTPL (GhTPL) | interaction with GhHDA6 (GhHDA6) |
| --- | --- | --- |
| B1 | interacted | interacted |
| B2 | significantly weakened | significantly weakened |

From US20240279288A1, “APPLICATION OF PLANT JAZ PROTEINS AND DERIVED POLYPEPTIDES IN PREVENTION AND TREATMENT OF HUMAN AND ANIMAL TUMORS” (ANYANG INSTITUTE OF SINO-COTTON INDUSTRY INNOVATION, priority 2021, published 2024)
